How the values were obtained:
[1] = target: SARS-CoV-2 spike receptor binding domain (SARS-CoV-2) (UniProt P0DTC2); experiment: BLI
[2] = target: SARS-CoV-2 spike receptor binding domain (SARS-CoV-2) (UniProt P0DTC2)

Row | Substance | Kd [1] [nM] | other [2] [pM]
1 | LCB3 (designed binder) | < 1 | 
2 | LCB1 (designed binder) | < 1 | 23.5
